Test [1] addresses T1, human CD30 (human, UniProt P28908 19-595).
T1 sequence: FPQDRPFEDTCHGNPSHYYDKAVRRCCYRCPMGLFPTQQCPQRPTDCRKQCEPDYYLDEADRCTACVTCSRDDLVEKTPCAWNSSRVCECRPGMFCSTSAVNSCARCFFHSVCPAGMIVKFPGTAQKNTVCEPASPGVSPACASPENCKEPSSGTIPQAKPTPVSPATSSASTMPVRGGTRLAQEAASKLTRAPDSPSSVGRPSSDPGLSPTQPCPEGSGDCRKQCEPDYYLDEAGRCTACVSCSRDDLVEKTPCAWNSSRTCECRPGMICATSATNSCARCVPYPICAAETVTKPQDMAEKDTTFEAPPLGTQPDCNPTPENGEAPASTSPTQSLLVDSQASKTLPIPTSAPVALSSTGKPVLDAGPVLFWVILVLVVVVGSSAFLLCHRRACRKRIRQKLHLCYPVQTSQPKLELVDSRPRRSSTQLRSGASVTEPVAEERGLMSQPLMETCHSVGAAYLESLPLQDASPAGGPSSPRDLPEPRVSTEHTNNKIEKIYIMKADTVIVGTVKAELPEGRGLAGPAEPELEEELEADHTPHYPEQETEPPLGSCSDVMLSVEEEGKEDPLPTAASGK
Nature of the test: cell-based or functional assay.

Test [2] addresses T1, human CD30. Nature of the test: flow cytometry, HDLM-2 cells. On the procedure:
(§1) Binding of CD3×CD30 bispecific antibodies to two CD30-expressing human tumor cell lines SU-DHL-1 (ALCL; ATCC, cat. no. ACC 356) and HDLM-2 (HL; ATCC, cat. no. CRL-2965) was analyzed […] by flow cytometry.
(§2) Cells (3×10⁴ cells/well) were incubated in polystyrene 96-well round-bottom plates (Greiner bio-one, cat. no. 650180) with serial dilutions of antibodies (range 0.0046 to 10 μg/mL in 3-fold dilution steps) in 50 μL staining buffer at 4° C. for 30 min. After washing twice in staining buffer, cells were incubated with 50 μL secondary antibody at 4° C. for 30 min. […] Next, cells were washed twice in staining buffer, resuspended in 100 μL staining buffer supplemented with TO-PRO-3 iodide (Thermo Fisher Scientific; cat. no. T3605; 1:8000 dilution) and analyzed on a FACSCelesta flow cytometer (BD Biosciences, USA). Live cells were gated based on FSC/SSC and absence of TOPRO-3 staining. Binding curves were analyzed by non-linear regression of log-transformed data (sigmoidal dose-response with variable slope, four parameters) using GraphPad Prism V7.02 software (GraphPad Software, San Diego, CA, USA).

Test [3] concerns the target T1, human CD30. The test is described as follows: flow cytometry, Expi293F cells transfected with human CD30. As for the experimental part: Cells (3×10⁴ cells/well) were incubated in polystyrene 96-well round-bottom plates (Greiner bio-one, cat. no. 650180) with serial dilutions of antibodies (ranging from 0.005 to 10 μg/mL in 3-fold dilution steps) in 100 μL staining buffer at 4° C. for 30 min. Experiments were performed in technical duplicate. After washing twice in staining buffer, cells were incubated in 50 μL secondary antibody at 4° C. for 30 min. As a secondary antibody, R-PE-conjugated goat-anti-human IgG (Jackson ImmunoResearch, UK; cat. no. 109⁻¹¹⁶-098) diluted 1:400 in staining buffer was used. Cells were washed twice in staining buffer, resuspended in 30 μL staining buffer containing 0.4% EDTA and analyzed on an iQue Screener (Intellicyt Corporation, USA). Binding curves were analyzed using non-linear regression (sigmoidal dose-response with variable slope) using GraphPad Prism V9.0.0 software (GraphPad Software, San Diego, CA, USA).

The target of test [4] is T1, human CD30. Nature of the test: flow cytometry, SU-DHL-1 cells. As for the experimental part: as §1, §2

B1: bsG1-huCD3-FEALxCD30-T215-FEAR (bispecific antibody, human IgG1, kappa, lambda)
heavy 1: not shown
light 1: not shown
heavy 2: not shown
light 2: DIVMTQSQKFMSTSVGDRVSVTCKASQNVFTNVAWYQQKLGQSPKPLIYSASYRYSGVPDRFTGSGSGTDFTLTISDVQSEDLAEYFCQQYNSYPVTFGAGTKLELKRTVAAPSVFIFPPSDEQLKSGTASVVCLLNNFYPREAKVQWKVDNALQSGNSQESVTEQDSKDSTYSLSSTLTLSKADYEKHKVYACEVTHQGLSSPVTKSFNRGEC
notes: Bispecific IgG1 made by controlled Fab-arm exchange; also called bsIgG1-huCD3-FEALxCD30-T215-FEAR
Regarding B1, in the test with human CD30 [1], the “T-cell mediated cytotoxicity of Karpas-299 cells, IC50 average” value (from here on “T-cell mediated cytotoxicity … IC50 average”) is 0.077 µg/mL and the “T-cell mediated cytotoxicity of Karpas-299 cells, maximum lysis average” value is 42.8%. Moreover, in the test with human CD30 [2], the “EC50 (read off the curve)” value is ~0.6 µg/mL.

B2: IgG1-CD30-HeFi-I-FEAR (antibody, V domains shown)
VH: EVKLVESGGGLVQPGGSLRLSCATSGFTFSDYYMNWVRQPPGKALEWLGFIRNKANGYTTEFSASVMGRFTISRDDSQSILYLQMNTLRAEDSATYYCARDPPYGNPHYYAMDYWGQGTSVTVSS
VL: DIVLTQSPASLAVSLGQRATISCRASKSVSASGYNYMHWYQQKAGQPPKLLIHLASNLESGVPARFSGSGSGTDFTLNIHPVEEEDASTYYCQHSGELPFTFGSGTKLEIKR
notes: Monospecific, bivalent parental antibody
As for B2, the binding result with human CD30 [3] is “binds”.

B3: bsG1-huCD3-FEALxCD30-HeFi-I-FEAR (bispecific antibody, human IgG1, kappa, lambda)
heavy 1: not shown
light 1: not shown
heavy 2: EVKLVESGGGLVQPGGSLRLSCATSGFTFSDYYMNWVRQPPGKALEWLGFIRNKANGYTTEFSASVMGRFTISRDDSQSILYLQMNTLRAEDSATYYCARDPPYGNPHYYAMDYWGQGTSVTVSSASTKGPSVFPLAPSSKSTSGGTAALGCLVKDYFPEPVTVSWNSGALTSGVHTFPAVLQSSGLYSLSSVVTVPSSSLGTQTYICNVNHKPSNTKVDKRVEPKSCDKTHTCPPCPAPEFEGGPSVFLFPPKPKDTLMISRTPEVTCVVVAVSHEDPEVKFNWYVDGVEVHNAKTKPREEQYNSTYRVVSVLTVLHQDWLNGKEYKCKVSNKALPAPIEKTISKAKGQPREPQVYTLPPSREEMTKNQVSLTCLVKGFYPSDIAVEWESNGQPENNYKTTPPVLDSDGSFFLYSRLTVDKSRWQQGNVFSCSVMHEALHNHYTQKSLSLSPG
light 2: not shown
notes: Bispecific IgG1 made by controlled Fab-arm exchange; also called BsIgG1-huCD3-FEALxCD30-HeFi-I-FEAR
Take B3: the “T-cell mediated cytotoxicity … IC50 average” value in the test with human CD30 [1] amounted to 0.052 µg/mL. In the test with human CD30 [1], the “T-cell mediated cytotoxicity of Karpas-299 cells, maximum lysis average” value amounted to 43%. In addition, the “EC50 (read off the curve)” value is ~0.3 µg/mL in the test with human CD30 [2], ~0.1 µg/mL with human CD30 [3] and ~0.3 µg/mL with human CD30 [4].

B4: bsG1-huCD3-FEALxCD30-T405-FEAR (bispecific antibody, human IgG1, kappa, lambda)
heavy 1: not shown
light 1: not shown
heavy 2: QVQLQQIGAELVRPGASVKLSCKASGYTFNNYWINWVKQRPGQGLEWIGNIYPSDSRSNYNQKFKDKATLTVDKPSSTAYMQLSSPTSEDSAVYYCTLGSYWGQGTLVTVSAASTKGPSVFPLAPSSKSTSGGTAALGCLVKDYFPEPVTVSWNSGALTSGVHTFPAVLQSSGLYSLSSVVTVPSSSLGTQTYICNVNHKPSNTKVDKRVEPKSCDKTHTCPPCPAPEFEGGPSVFLFPPKPKDTLMISRTPEVTCVVVAVSHEDPEVKFNWYVDGVEVHNAKTKPREEQYNSTYRVVSVLTVLHQDWLNGKEYKCKVSNKALPAPIEKTISKAKGQPREPQVYTLPPSREEMTKNQVSLTCLVKGFYPSDIAVEWESNGQPENNYKTTPPVLDSDGSFFLYSRLTVDKSRWQQGNVFSCSVMHEALHNHYTQKSLSLSPG
light 2: DVVMTQTPLTLSVTIGQPASISCKSSQSLSDSDGKTYLNWLLQRPGQSPKRLIYLVSKLDSGVPDRFTGSGSGTDFTLKISRVEAEDLGVYYCWQGAHFPRTFGGGTKLEIKRTVAAPSVFIFPPSDEQLKSGTASVVCLLNNFYPREAKVQWKVDNALQSGNSQESVTEQDSKDSTYSLSSTLTLSKADYEKHKVYACEVTHQGLSSPVTKSFNRGEC
notes: Bispecific IgG1 made by controlled Fab-arm exchange; also called bsIgG1-huCD3-FEALxCD30-T405-FEAR
Consider B4, for which, in the test with human CD30 [1], the “T-cell mediated cytotoxicity … IC50 average” value is 0.078 µg/mL and the “T-cell mediated cytotoxicity of Karpas-299 cells, maximum lysis average” value stood at 41.7%. In addition, the “EC50 (read off the curve)” value with human CD30 [2] was ~1 µg/mL. Further, the “EC50 (read off the curve)” value in the test with human CD30 [3] was ~0.7 µg/mL.

B5: bsG1-huCD3-FEALxCD30-T408-FEAR (bispecific antibody, human IgG1, kappa, lambda)
heavy 1: not shown
light 1: not shown
heavy 2: QVQLQQPGAELVRPGASVKLSCKASGYTFTSYWINWVKQRPGQGLEWIGNIYPSDSYSNYNQKFKDKATLTVDKSSSTAYMQLSSPTSEDSAVYYCTLGSYWGQGTLVTVSAASTKGPSVFPLAPSSKSTSGGTAALGCLVKDYFPEPVTVSWNSGALTSGVHTFPAVLQSSGLYSLSSVVTVPSSSLGTQTYICNVNHKPSNTKVDKRVEPKSCDKTHTCPPCPAPEFEGGPSVFLFPPKPKDTLMISRTPEVTCVVVAVSHEDPEVKFNWYVDGVEVHNAKTKPREEQYNSTYRVVSVLTVLHQDWLNGKEYKCKVSNKALPAPIEKTISKAKGQPREPQVYTLPPSREEMTKNQVSLTCLVKGFYPSDIAVEWESNGQPENNYKTTPPVLDSDGSFFLYSRLTVDKSRWQQGNVFSCSVMHEALHNHYTQKSLSLSPG
light 2: DVVMTQTPLTLSVTIGQPASISCKSSQSLSDSDGKTYLNWLLQRPGQSPKRLIYLVSKLDSGVPDRFTGSGSGTDFTLKISRVEAEDLGVYYCWQGAHFPRTFGGGTKLEIKRTVAAPSVFIFPPSDEQLKSGTASVVCLLNNFYPREAKVQWKVDNALQSGNSQESVTEQDSKDSTYSLSSTLTLSKADYEKHKVYACEVTHQGLSSPVTKSFNRGEC
B5: in the test with human CD30 [1], the “T-cell mediated cytotoxicity … IC50 average” value turned out to be 0.226 µg/mL and the “T-cell mediated cytotoxicity of Karpas-299 cells, maximum lysis average” value was 41.3%.

B6: bsG1-huCD3-FEALxCD30-hAC10-FEAR (bispecific antibody, human IgG1, kappa, lambda)
heavy 1: not shown
light 1: not shown
heavy 2: QVQLVQSGAEVKKPGASVKVSCKASGYTFTDYYITWVRQAPGQGLEWMGWIYPGSGNTKYNEKFKGRVTMTRDTSISTAYMELSRLRSDDTAVYYCANYGNYWFAYWGQGTLVTVSSASTKGPSVFPLAPSSKSTSGGTAALGCLVKDYFPEPVTVSWNSGALTSGVHTFPAVLQSSGLYSLSSVVTVPSSSLGTQTYICNVNHKPSNTKVDKRVEPKSCDKTHTCPPCPAPEFEGGPSVFLFPPKPKDTLMISRTPEVTCVVVAVSHEDPEVKFNWYVDGVEVHNAKTKPREEQYNSTYRVVSVLTVLHQDWLNGKEYKCKVSNKALPAPIEKTISKAKGQPREPQVYTLPPSREEMTKNQVSLTCLVKGFYPSDIAVEWESNGQPENNYKTTPPVLDSDGSFFLYSRLTVDKSRWQQGNVFSCSVMHEALHNHYTQKSLSLSPG
light 2: not shown
notes: Bispecific IgG1 made by controlled Fab-arm exchange
B6: the “EC50 (read off the curve)” value in the test with human CD30 [2] and with human CD30 [4] was ~0.2 µg/mL throughout.

B7: IgG1-CD30-HRS-3-FEAR (antibody, V domains shown)
VH: QVQLQQSGAELARPGASVKMSCKASGYTFTTYTIHWVRQRPGHDLEWIGYINPSSGYSDYNQNFKGKTTLTADKSSNTAYMQLNSLTSEDSAVYYCARRADYGNYEYTWFAYWGQGTTVTVSS
VL: DIVMTQSPKFMSTSVGDRVTVTCKASQNVGTNVAWFQQKPGQSPKVLIYSASYRYSGVPDRFTGSGSGTDFTLTISNVQSEDLAEYFCQQYHTYPLTFGGGTKLEINR
notes: as for B2
Take B7: the “EC50 (read off the curve)” value with human CD30 [2] and in the test with human CD30 [4] was ~0.2 µg/mL each time.

B8: IgG1-CD30-T215-FEAR (antibody, V domains shown)
VH: QVTLKESGPGILQPSQTLSLTCSFSGFSLSVSGMGVSWIRQPSGKGLEWLAHIHWDDDRRSNPSLRSRLTISKDTSNNQVFLKITSVDTADTATYYCARRPDLYGNYFFFDFWGQGTTLTVSS
VL: DIVMTQSQKFMSTSVGDRVSVTCKASQNVFTNVAWYQQKLGQSPKPLIYSASYRYSGVPDRFTGSGSGTDFTLTISDVQSEDLAEYFCQQYNSYPVTFGAGTKLELKR
notes: as for B2
For B8, the “EC50 (read off the curve)” value with human CD30 [2] was ~0.2 µg/mL; in the test with human CD30 [4] it was ~0.1 µg/mL.

B9: IgG1-CD30-hAC10-FEAR (antibody, V domains shown)
VH: QVQLVQSGAEVKKPGASVKVSCKASGYTFTDYYITWVRQAPGQGLEWMGWIYPGSGNTKYNEKFKGRVTMTRDTSISTAYMELSRLRSDDTAVYYCANYGNYWFAYWGQGTLVTVSS
VL: DIVMTQSPDSLAVSLGERATINCKASQSVDFDGDSYMNWYQQKPGQPPKLLIYAASNLESGVPDRFSGSGSGTDFTLTISSLQAEDVAVYYCQQSNEDPWTFGQGTKVEIKR
notes: as for B2
For the molecule B9, the “EC50 (read off the curve)” value with human CD30 [2] is ~0.1 µg/mL.
